In the nanobody polyreactivity screen of Harvey et al. (2022):

Assay: yeast display, Sf9 membrane polyspecificity reagent, FACS + sequencing; frameworks hold sequencing errors
Outline: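 Genes from sorted yeast were amplified by colony PCR, read by MiSeq 2 × 250 sequencing and filtered on CDR length. These cells carried a synthetic nanobody library in Saccharomyces cerevisiae BJ5465 and were sorted by FACS into low and high (top ~1%) gates on anti-HA and streptavidin fluorescence. Polyreactivity is labelled according to the gate of origin.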

## QVQLVESGGGLVQAGGSLRLSCAASGGTFAFNAMGWYRQAPGKERELVATIRYSGGSTYADSVKGRFTISRDNAKNTVYLQMNSLKPEDTAVYYCAADVIYWFSGEYDYWGQGTQVTVSS
  polyreactivity (PSR sort gate): low polyreactivity

## QVQLVESGGGLVQAGGSLRLSCAASGGTFAVNAMGWYRQAPGKEREFVAAISSRGSTSYADSVKGRFTISRDNAKNTVYLQMNSLKPEDTAVYYCAKRQGYWFDYWGQGTQVTVSS
  polyreactivity (PSR sort gate): high polyreactivity

## QVQLVESGGGLVQAGGSLRLSCAASGGTFCRNVMGWYRQAPGKERELVAAISRRGSSTYYADSVKGRFTISRDNAKNTVYLQMNSLKPEDTAVYYCARDQYTGADEAGDDYWGQGTQVTVSS
  polyreactivity (PSR sort gate): high polyreactivity

## QVQLVESGGGLVQAGGSLRLSCAASGGTFDYNAMGWYRQAPGKERELVAAITSGASTYYADSVKGRFTISRDNAKNTVYLQMNSLKPEDTAVYYCAKGPTPGYDYWGQGTQVTVSS
  polyreactivity (PSR sort gate): low polyreactivity

## QVQLVESGGGLVQAGGSLRLSCAASGGTFDYYAMGWYRQAPGKERELVAAITRGSTNYADSVKGRFTISRDNAKNTVYFQMNSLKPEDTAVYYCAARGRFVTPQPSYDYWGQGTQVTVSS
  polyreactivity (PSR sort gate): high polyreactivity

## QVQLVESGGGLVQAGGSLRLSCAASGGTFEYNAMGWYRQAPGKERELVAAISKSGGRTYFADSVKGRFTISRDNAMNTVYLQMNSLKPEDTAVYYCAKRYVWGQGTQVTVSS
  polyreactivity (PSR sort gate): high polyreactivity

## QVQLVESGGGLVQAGGSLRLSCAASGGTFEYYAMGWDRQAPGKESELVAGITGGGVSTYYADSVKGRFTISRDNAKNPVYLQKNSLKPEDTAVYYSAAAYYQDNFWWYYYWGQGTQVNVSS
  polyreactivity (PSR sort gate): high polyreactivity

## QVQLVESGGGLVQAGGSLRLSCAASGGTFEYYPMGWYRQAPGKETEMVAGITWGGVSTYYADSVKGRFTLSRDTAKNTVYLQMNSLKPEDTSVFYCAAAYSQDNVWWYYYWGQGTQVTVSS
  polyreactivity (PSR sort gate): high polyreactivity

## QVQLVESGGGLVQAGGSLRLSCAASGGTFFLYAMGWYRQAPGTERELVADISSGDSTNYADSVKGRFTISRDNAKNTVYLQMNSLKPEDTAVYYCAADGKLEYVNGYNLYYWGQGTQVTVSS
  polyreactivity (PSR sort gate): low polyreactivity

## QVQLVESGGGLVQAGGSLRLSCAASGGTFFTNAMGWYRHAPGKERELVAVITGSGGRTYYADSVKGRFTISRDNAMNTVYLQMNSLKPEDTAVYYCAARGYSWGQGTQVTLSS
  polyreactivity (PSR sort gate): high polyreactivity

## QVQLVESGGGLVQAGGSLRLSCAASGGTFFWYGMGWYRQAPGKERELVAAITSGGSTYYADSVKGRFTISRDNAKNTVYLQMNSLKPEDTAVYYCATENRFRGWYPTRSSLPYEYWGQGTQVTVSS
  polyreactivity (PSR sort gate): low polyreactivity

## QVQLVESGGGLVQAGGSLRLSCAASGGTFGGYAMGWYRQAPGKERELVAVISQSGGTTYYADSVKGRFTISRDNAKNTVYLQMNSLKPEDTAVYYCNAYTYYKRFGYWGQGTQVTVSS
  polyreactivity (PSR sort gate): high polyreactivity

## QVQLVESGGGLVQAGGSLRLSCAASGGTFGHYTMGWYRQAPGKERELVAAISGSGGTTYYADSVKGRFTISRDNAKNTVYLQINSLKPEDTAVYFCNKGIPTRSVRSYDYWGQGTKVTVSS
  polyreactivity (PSR sort gate): high polyreactivity

## QVQLVESGGGLVQAGGSLRLSCAASGGTFGRYAMGWYRQAPGKERELFAAITWGGTRTYYADSVKGRFTISRDNAKNTVYLQMNSLKPEDTAGYYCAAYSNYPVFDYNYWGQGTQVTVSS
  polyreactivity (PSR sort gate): high polyreactivity

## QVQLVESGGGLVQAGGSLRLSCAASGGTFGRYAMGWYRQAPGKERELVASITTGGRTNYADSVKGRFTISRDNAKNTVYLQMNSLKPEDTAVYYCAKKRYGYPVPFYYWGQGTQVTVSS
  polyreactivity (PSR sort gate): high polyreactivity

## QVQLVESGGGLVQAGGSLRLSCAASGGTFGSYAMGWYRQAPGKERELVAAIDYSGADTYYADSVKGRFTISRDNAKNTVFLQMNSLKPEDTAVYYCNAEFESGHDLDWYDYWGQGTQVTVSS
  polyreactivity (PSR sort gate): low polyreactivity

## QVQLVESGGGLVQAGGSLRLSCAASGGTFGSYAMGWYRQAPGKERELVAAIRSGDRTYYADSVKGRFTISRDNAKNTVYLQMNSLKPEDTAVYYCAKLRYPYLFWDDSEYWGQGTQVTVSS
  polyreactivity (PSR sort gate): low polyreactivity

## QVQLVESGGGLVQAGGSLRLSCAASGGTFGTNTMGWYRPAHGKERELVAAISKRGGRTYYADSVKGRFTISRDNAKITVYLQMNSLKPEDTAVYYCAADTGGNPKYDYWGQGTQVTVSS
  polyreactivity (PSR sort gate): high polyreactivity

## QVQLVESGGGLVQAGGSLRLSCAASGGTFGTYAMGWYRQAPGKERELVAAITYRGGRTYYADSVKGRFTISRDNAKYTVYLQLDCVKPEDSAVYYCAKDVRGHRHPYSLRDYWGEGTQVTVSS
  polyreactivity (PSR sort gate): high polyreactivity

## QVQLVESGGGLVQAGGSLRLSCAASGGTFGYNAMGWYRQAPGKERELVAAISYTGDSTYYADSVKGRFTISRDNAKNTVDLQMNSLKPEDTAVYYCAASVYYYRYNYWGQATQVTVSS
  polyreactivity (PSR sort gate): low polyreactivity

## QVQLVESGGGLVQAGGSLRLSCAASGGTFGYNVMGWYRQAPGKERELVAAISYSVGGTYYADSVKGRFTISRDNAMNTVYLQMNSLKPEDTAVYYCAATGRRRTYSEYEYWGQGTQVTVSS
  polyreactivity (PSR sort gate): high polyreactivity

## QVQLVESGGGLVQAGGSLRLSCAASGGTFHRYAMGWYRQAPGKERELVAAISGSGASTYYADSVKGRFTISRDNAKNTVYLQMNSLKPEDTAVYYCNALWYYQIGPRGDHWGQGTQVTVSS
  polyreactivity (PSR sort gate): high polyreactivity

## QVQLVESGGGLVQAGGSLRLSCAASGGTFKLYAMGWYRQAPGKERELVAAISRRGGSTYYADSVKGRFTISRDNAKNTVYLQMNSLKPEDTAVYYCAAPGPTQSTQRGGYWGQGTQVTVSS
  polyreactivity (PSR sort gate): high polyreactivity

## QVQLVESGGGLVQAGGSLRLSCAASGGTFKTNAMGWYRQAPGKERELVAAITGSGTSTYYADSVKGRFTISRDNAKNTVYLQMNSLKPEDTAVYYCAADKLYQPGIGDDYWGQGTQVTVSS
  polyreactivity (PSR sort gate): low polyreactivity

## QVQLVESGGGLVQAGGSLRLSCAASGGTFKTYAMGWYRQAPGKERELVAAITSSSSRTHYADSVKGRFTISRDNAKYTVYLQMNSLKPEVTAVYYCAAAIPSYTRTGYWGQGTQVTVSS
  polyreactivity (PSR sort gate): high polyreactivity

## QVQLVESGGGLVQAGGSLRLSCAASGGTFLAYAMGWYRQAPGKERELLATITSGGSTNYADSVKGRFTISRDNAKNTVYVQMNSLKPEDTAVYYCAASGRDFIAESPYDYWGQGTQVTVSS
  polyreactivity (PSR sort gate): low polyreactivity

## QVQLVESGGGLVQAGGSLRLSCAASGGTFLAYAMGWYRQAPGKERELVAAITRRGTRTYYADSVKGRFTISRDNAKNTVYLQMNSLKPEDTAVYYCAVSGGFYWGQGTQVTVSS
  polyreactivity (PSR sort gate): high polyreactivity

## QVQLVESGGGLVQAGGSLRLSCAASGGTFLYYMGWYRQSPGKERELVAAITFSGGSTYYADSVKGRFTISRDNAKNTVYLQMNSLKPEDTAVYYCAAGWYDWPKYLLSVYTYYLYDSWGQGTQVTVSS
  polyreactivity (PSR sort gate): low polyreactivity

## QVQLVESGGGLVQAGGSLRLSCAASGGTFNGYAMGWYRQAPGKERELVAAITSGGGSTYADSVKGRFTISRDNAKNTVYLQMNSLKTEDTAVYYCNADQWDEWFWDYDYWGQGTQVTVSS
  polyreactivity (PSR sort gate): low polyreactivity

## QVQLVESGGGLVQAGGSLRLSCAASGGTFPLYAMGWYRPAPGKERELVAAIRWSGGRTYYADSVKGRFTISRDNAKNTVYLQMNSLKPEDTAVYYCAADYDDGWGYDYWGQGTQVTVSS
  polyreactivity (PSR sort gate): high polyreactivity

## QVQLVESGGGLVQAGGSLRLSCAASGGTFQRYVMGWYIQAPGKERELVAAISRSGSTYADSVKGRFTISRDNAKNTVYLQMNSLKPEDTAFYYCNVVRYYRYYLHGYDYWGQGTQVTVSS
  polyreactivity (PSR sort gate): high polyreactivity

## QVQLVESGGGLVQAGGSLRLSCAASGGTFQWNAMGWYRQAPGNERELVAAITSGGRTNYADSVKGRFTISRDNAKTTVSFQLNSLKPEDTAVYYCAATAWDRYIDYDYWGQGTQETVSS
  polyreactivity (PSR sort gate): high polyreactivity

## QVQLVESGGGLVQAGGSLRLSCAASGGTFRDYAMGWYRQAPGKERELVASISWTVGGTYADSVKGRFSISRDNAKNTVYLQMNSLKPEDTAVYYCAADYSPSTWYLYYTLYYYWGQGTQVTVSS
  polyreactivity (PSR sort gate): low polyreactivity

## QVQLVESGGGLVQAGGSLRLSCAASGGTFRFNAMGWYRQAPGKERELVAAISRGGSTNYADSVKGRFTISRDNAKNTVYLQMNSLKPEDTAVYYCAADTYHPRFWYDYWGQGTQVTVSS
  polyreactivity (PSR sort gate): low polyreactivity

## QVQLVESGGGLVQAGGSLRLSCAASGGTFRGYTMGWYRPAPGKERELVAAITRIGGSTYYADSVKGRFTISRDNAKYTVYLQMNSLKPEDTAVYYCAARGGVPYSNAYDFWGQGTQVTVSS
  polyreactivity (PSR sort gate): low polyreactivity

## QVQLVESGGGLVQAGGSLRLSCAASGGTFRPYAMGWYRQAPGKERELVATIRSSGGRTYYADSVKGRFTISRDNAKNTVYLQMNSLKPDDTAVYYCAKRAQTYYGYDYWGQGTQVTVSS
  polyreactivity (PSR sort gate): high polyreactivity

## QVQLVESGGGLVQAGGSLRLSCAASGGTFRVYAMGWYRQAPGKERELVAAITGRGGSTYYADSVKGRFTISRDNAKNTVYLQMNSLKPEETAVYYCAKDPVTTYYKYDYWGQGTQVTVSS
  polyreactivity (PSR sort gate): low polyreactivity

## QVQLVESGGGLVQAGGSLRLSCAASGGTFRYNAMGWYRQAPGKERELVAAITSVGITNYADSVKGRFTISRDNAKNTVYLQMNSLKPEDTAVYYCAKRYYRYGARSWYYPYDYWGQGTQVTVSS
  polyreactivity (PSR sort gate): high polyreactivity

## QVQLVESGGGLVQAGGSLRLSCAASGGTFRYYTMVWYRQAPGKERELVAAITRGGRTYYADSVKGRFTISRDNAKNTVYIQMNSLKPEDTAVYYCAAVRPRSPVSYENDYWGQGTQVTVSS
  polyreactivity (PSR sort gate): high polyreactivity

## QVQLVESGGGLVQAGGSLRLSCAASGGTFSPYDMGWYRQAPGKERELVASITGSGGSTYYADSVKGRFTISRGNAKNTVYLQMNSLKPEDTAVYYCAAQGYCTYWPYLLRLYEYWGHGTQVTVSS
  polyreactivity (PSR sort gate): low polyreactivity

## QVQLVESGGGLVQAGGSLRLSCAASGGTFSTYAMGWYRQAPGKERELVAAISWRGGSTYYADSVKGRFTISRDNAKNTVYLQMNSLKPEDTAVYYCAAYYSRGWLLYWDEMSYWGQGTQVTVSS
  polyreactivity (PSR sort gate): high polyreactivity

## QVQLVESGGGLVQAGGSLRLSCAASGGTFSVNAMGWYRQAHGTERELVAAISWRGGSTYNADSVKGRFTISRDTAKNTFYLQMNSLKPEDTAVYYCAKYRYYYYWFNYWGQGTQVNVSS
  polyreactivity (PSR sort gate): high polyreactivity

## QVQLVESGGGLVQAGGSLRLSCAASGGTFSYYAMGWYRQAPGKERELVAAISKRGGSTYYADSVKGRFTISRDNAKNTVYLQMNSLKPEETAVYYCARGYSWSVGYPRVQDMDYWGQGTQVTVSS
  polyreactivity (PSR sort gate): high polyreactivity
